Tests used:
[1] = target: T1, FGIF|YLNG (Table 1 substrate sequence)
T1 chain: FGIFYLNG

[2] = target: T2, GLY|FRYE (Table 1 substrate sequence)
T2 chain: GLYFRYE

[3] = target: T3, HMIA|LYWG (Table 1 substrate sequence)
T3 chain: HMIALYWG

[4] = target: T4, IKIL|MFYW (Table 1 substrate sequence)
T4 chain: IKILMFYW

[5] = target: T5, cathepsin E selective internally quenched fluorescent substrate AGFSL|PA
T5 chain: AGFSLPA

[6] = target: T6, DEGW|ALQH (Table 1 substrate sequence)
T6 chain: DEGWALQH

[7] = target: T7, NMKW|TRVL (Table 1 substrate sequence)
T7 chain: NMKWTRVL

[8] = target: T8, PWTW|YGVK (Table 1 substrate sequence)
T8 chain: PWTWYGVK

[9] = target: T9, VGKW|SYRM (Table 1 substrate sequence)
T9 chain: VGKWSYRM

[10] = target: T10, gastricsin selective internally quenched fluorescent substrate DEGW^ALQH
T10 chain: DEGWALQH

B1: recombinant cathepsin E (R&D Systems, 1294-AS) (protein)
chain: IQFTESCSMDQSAKEPLINYLDMEYFGTISIGSPPQNFTVIFDTGSSNLWVPSVYCTSPACKTHSRFQPSQSSTYSQPGQSFSIQYGTGSLSGIIGADQVSVEGLTVVGQQFGESVTEPGQTFVDAEFDGILGLGYPSLAVGGVTPVFDNMMAQNLVDLPMFSVYMSSNPEGGAGSELIFGGYDHSHFSGSLNWVPVTKQAYWQIALDNIQVGGTVMFCSEGCQAIVDTGTSLITGPSDKIKQLQNAIGAAPVDGEYAVECANLNVMPDVTFTINGVPYTLSPTAYTLLDFVDGMQFCSSGFQGLDIHPPAGPLWILGDVFIRQFYSVFDRGNNRVGLAPAVP
Protein B1 has a Relative Cleavage [1] of 0.88, a Total Cleavage [1] of 22 and a Relative Cleavage [2] of 1. The Total Cleavage [2] was 25, the Relative Cleavage [3] was 0.4 and the Total Cleavage [3] was 10. For the same protein, the Relative Cleavage [4] was 0.68, the Total Cleavage [4] was 17 and the “selectivity of fluorescent substrate cleavage (initial velocity) for cathepsin E over cathepsin D” value [5] was “more than 100-fold selective for cathepsin E over both cathepsin D and gastricsin”. For the same protein, the “selectivity of fluorescent substrate cleavage (initial velocity) for cathepsin E over gastricsin” value [5] was “more than 100-fold selective for cathepsin E over both cathepsin D and gastricsin”.

B2: recombinant gastricsin (R&D Systems, 6186-AS) (protein)
chain: SVTYEPMAYMDAAYFGEISIGTPPQNFLVLFDTGSSNLWVPSVYCQSQACTSHSRFNPSESSTYSTNGQTFSLQYGSGSLTGFFGYDTLTVQSIQVPNQEFGLSENEPGTNFVYAQFDGIMGLAYPALSVDEATTAMQGMVQEGALTSPVFSVYLSNQQGSSGGAVVFGGVDSSLYTGQIYWAPVTQELYWQIGIEEFLIGGQASGWCSEGCQAIVDTGTSLLTVPQQYMSALLQATGAQEDEYGQFLVNCNSIQNLPSLTFIINGVEFPLPPSSYILSNNGYCTVGVEPTYLSSQNGQPLWILGDVFLRSYYSVYDLGNNRVGFATAA
With B2 the Relative Cleavage [6] was 0.47, the Total Cleavage [6] was 30 and the Relative Cleavage [7] was 0.33. For the same protein, the Total Cleavage [7] was 21, the Relative Cleavage [8] was 1 and the Total Cleavage [8] was 64. For the same protein, the Relative Cleavage [9] was 0.34, the Total Cleavage [9] was 22 and the kcat/Km (M-1/s-1) [10] was 480000 M-1/s-1. The “selectivity of fluorescent substrate cleavage (initial velocity) for gastricsin over cathepsin D” value [10] was “greater than 120-fold selective for gastricsin over both cathepsins D and E” and the “selectivity of fluorescent substrate cleavage (initial velocity) for gastricsin over cathepsin E” value [10] was “greater than 120-fold selective for gastricsin over both cathepsins D and E”.

— patent publication US20200081011
